From the DeepSol protein solubility set

test: soluble on expression in E. coli; label from the status in PepcDB or PDB records

**Q.** For “MASLCNSIIGWIKNDKEVRLRKRGDTSRRDAVEAGFEPRDTVPRCHSTQSLRDVQRVRSYNNSQFQASDLSLNPNGSIRAACDSTSGSVAPTAVVNPARNHVISHRQQHHTSYEKDLIPHHNIDVDRRRSLQALNGSSALYQLNNGGSPNGVRSQFSPSDLSIHTPVHHVGSRVRVSSVNQICDSNSAPQFSIDQRRSVHNIGNPVRNSFVDGIKTTSTPKNQIAVAPLAHKSRHLSESRDEMRGGAERRGSGGQMNLPAYTNYLIRHSGEERLVDGPVTNASDARIAYLEKRIRELELTQKEQSSHSTPSQSRHSSSKSSHFNGSSNLSTSEQLRLQEMSDELANKDRKVTSLESKLLKAYQRIERLNEEYDGKIKNLMYDSERARDDLTRCVDKIQQLENELDETRAAVQNGDHANEQEYHELRDKIWKQERELQESRTLLTRLREKEAEFERMRSEKGYLELKNENLNKKLEAKKRAVEELERSVSTLRLEQTICQQSCSSGSTPLADEMEIMSDIRPSLARPYTKAHSTLGSHNMSPLSHSKSSGLTKSFSNFALNSSKQRDDITANMSRSIREQNRHITMCRAMVVCLKDTVDRMARGENPDVARLLGVKLNVMSESEMEDDEDHEADASQPFSMMSAESALSKQCGKLADLDKDLDTIRCQLADWHGQTNAEGDGDRDVCRVQ”, which “soluble on expression in E. coli” value is on record?
**A.** Its value is “not soluble”.

**Q.** For “MFKKLFGKGKEVQKDIAIYAPLTGEFVKIEDIPDPVFAQKMMGEGFGINPTEGEVVSPIAGRVDNVFPTKHAIGLKADNGLELLVHIGLDTVQLDGEGFEVLVSSGDEVNVGDPLVRFNLEYINNNAKSVISPIIITNTDQAASINIYDENAVIKGETKVIDVTMN”, which “soluble on expression in E. coli” value is on record?
**A.** Its value is “not soluble”.

**Q.** With “MTSWADIQKLASDLQRVQLSQSSKKLSEVNCIEVLQKLIASHRIDVVYTRDGHSYVTKNHLETEIKNECIAAGGRASLTDIAVALNIDFDHIEKTSRLIVSTDDEFTISNAEIFATEYVHRLRNELRTLLDEQGNQTTAALCKHWNLSSELLQSLLIEKLGSSDFQGVVDGDTIYTSSFLNARQLVLRAILIALTKITPISTIQKRVGLTPKRFWIAFENLQSLGEIPGTLIGSRTSPSCSYRPMMYDHLVKSCVLNQYRQNEFLEISTLKTLGVDAKPALEEVLGSSEFKKLVSMRSMFMTKELMDQCINAVQEDLQKSGISDVHLALQSLNLPLDTADEDEIGSKVANVEKDSHFAEGFVFKGAVLTEALRSIDKLLDVRAHEEVDRLEAEKKKQGGAKAAVKVQEETDDWGDGKKGGKGGKKNAKSVKGGSKSSAPSTSSNLSANISINSEELEIWLRESQSVPEEILSVIVEKLNQETTTLLRKKVQDIQAHQLVASVANSKKSLSAIGDKCRQLYDSFNTFETATSTFADPLGSDLRQYLLKTVGNEIALALLSYVMGVDNAHQLKEKQREETIENLPEMLRDPIRSVFASLKSTDDDALDKFHDAVYNCSAPSATSLALKKVDKKGRAEVGAKITAELHEQLCSQTEPATTLLLSVLYILAKAGRPTTASGKFVSQLVAQIKDLCPENVFDLLQACQKGVVTCIKNKGDEVAKEMLVNDISSLKQSIMP” as the sequence, how does the “soluble on expression in E. coli” value read?
**A.** Its value is “not soluble”.

**Q.** For “MSDADPKVPHRGHELLDVLARLGGSARNAQIAQVMDVSEETVRRLVKTLAKQGKVERVHGGTYLRGSQDAPMYSGALEQQPKEKTRIAKGVLELIRDGMTLFINVGSTTTYVAEQLRERRDLTIVTNSISTVASLADHNGSRVFLAGGEVSRSERGCFGRATEDFARRFAYDVLVIGADAMSPELGVLAANPREAELTRALLGNATRVIVAADYRKFSAIAPCIAAPLEAITDLVTDAAPPDALQDALDRCGVATHLAAKSGRITTRTPPPQDVGHSNTNRKTLSFPTEVSLEHHHHHH”, which “soluble on expression in E. coli” value is on record?
**A.** The value was “soluble”.

**Q.** With “MGSDKIHHHHHHMSMDKELITAQALAEALHLSVETIWRYTREKKIPCIELGNKQYRYKKDDVIKALSNGSIQESASSYETQEPRKLTYQDYLLLPEEPGYHFEILDGMLIKEPAPNVLHQRVSRRLQRILEDYFWKVDPKGEVFDAPLDVTLHDVNVVQPDLLYVASEQEVIVKDTRIDGPPMLVVEIMSPSTSRKDRLQKRRIYQEARVEHYWLVNPQEKMLECFAWRDGVYALVAGGMEEELVEHPDFPGLSIALRALWNREI” as the sequence, how does the “soluble on expression in E. coli” value read?
**A.** Its value is “not soluble”.

**Q.** For “MNIKLSFISIAFLSLSFNVAANEFEKSQEHYKSVTDLKNKIEILELEKKITELSGEIRNARMPKIDKSAPVLSPQPVVKSSEELQKSIEHIEEELKVELAYLVNNGQQKKYTFNLNGKLITLVNGDFVNGWKFIEDQNKIQFSKGNKVIDVN”, which “soluble on expression in E. coli” value is on record?
**A.** The value was “not soluble”.

**Q.** With “MIVSMKKLAQLLLPLLLPFSAEAGGQPDFCKSINHAGGRYTVCSFDPAKNTIRIYDQDHVSGQGYRNFADLSSALWRQHMFSVFAMNGGMYHSDYSPVGLFVENGVERSPVSTRGGWGNFHLLPNGVFYLDGNTAGVLETEAYLAADPKPDFATQSGPMLVIDGKLHPRFLPDSDSLKRRNGVGVSRDGMVHFAISETTVRFYDFGTLFRDVLDAPNALYLDGTISSVDIPAMNRRDQLFSMGPIIAVVDRVPDLEHHHHHH” as the sequence, how does the “soluble on expression in E. coli” value read?
**A.** The value was “not soluble”.

**Q.** With “MNAPLRFGPYAVSRFVDGVYKAPVGHLIHRQGAVALAAVVAGLEGETVDMDVNCFALSGPDGVWLIDAGCGTAWGAAYGHARAAMLAAGIQPDDVSRVILTHIHGDHALGLIDGDRPYFPNAEIWVPEADLAFFTNADARKTLPPARQGGFDLAARLLDICGAMLRPIPTGTVAEDIEAIAMPGHTPGHMGYLIGSGDARLLLWGDVLHVGELQAADPEIAFVYDIDSELAYATRLAALAEAADHGWLVSGGHLGGFFHIERRGDSFRFVPQPG” as the sequence, how does the “soluble on expression in E. coli” value read?
**A.** Its value is “not soluble”.

**Q.** With “MTKAMTAHDYLPLIEKIRKRISSWTGRFLSYCGRLQLIKSVLMSITNFWSSAFRLPGNCMKEIERLCSAFLWSGPDLKTHNAKIAWSKVCLPMCEGGLGLRPLKEINTVCGLKLIWRLLASQTSLWGQWVQTYLIRRNNFWAIKASSYQGSWMWRKLLTLRDVARSFHKKEIHNGRNTSFWYDHWSSMGTLVDVLGARGCIDLGITTTTNMENVFTTRRSRKHRGDLLVRIEAEIEAAKTRHQPDIEDIDLWKPSTGYKKTFSTRETWKLIRMAEPVCEWAKGVWFPKPHQNLLSLLGWVCTIVFQQGTECKSGTAKLTLLAFSAKTLWKQEITYSSTVTTPIKFGKL” as the sequence, how does the “soluble on expression in E. coli” value read?
**A.** Its value is “not soluble”.

**Q.** With “MAGDPMPKNKILIYLLSTTLVLPTLVSPTAYADTPQKDTTAKTTSHDSKKSNDDETSKDTTSKDIDKADNNNTSNQDNNDKKFKTIDDSTSDSNNIIDFIYKNLPQTNINQLLTKNKYDDNYSLTTLIQNLFNLNSDISDYEQPRNGEKSTNDSNKNSDNSIKNDTDTQSSKQDKADNQKAPKSNNTKPSTSNKQPNSPKPTQPNQSNSQPASDDKANQKSSSKDNQSMSDSALDSILDQYSEDAKKTQKDYASQSKKDKNEKSNTKNPQLPTQDELKHKSKPAQSFNNDVNQKDTRATSLFETDPSISNNDDSGQFNVVDSKDTRQFVKSIAKDAHRIGQDNDIYASVMIAQAILESDSGRSALAKSPNHNLFGIKGAFEGNSVPFNTLEADGNKLYSINAGFRKYPSTKESLKDYSDLIKNGIDGNRTIYKPTWKSEADSYKDATSHLSKTYATDPNYAKKLNSIIKHYQLTQFDDERMPDLDKYERSIKDYDDSSDEFKPFREVSDSMPYPHGQCTWYVYNRMKQFGTSISGDLGDAHNWNNRAQYRDYQVSHTPKRHAAVVFEAGQFGADQHYGHVAFVEKVNSDGSIVISESNVKGLGIISHRTINAAAAEELSYITGKLEHHHHHH” as the sequence, how does the “soluble on expression in E. coli” value read?
**A.** The value was “soluble”.

**Q.** With “SDDREMDDGRWKASALRVPLQVSSAVIKQEVVTRLAPDPVPLTEGAIGIFLSGTEPESGQEDSGYKVIDNRKYVYSEGHWGPPTANDTIYLVGNDADVCAYYPYKDSYTDKTVIPLQSQDYVETEDIYYALNTMINGFTPAITFDMVHAYSLVELKISRENYFMPCEISKITLKNSNLIKKGTINIAVDGSIHSSETGNYDLTTVTDASPHTLSVGESYVCRVLMIPVPLKIERTDAEGGEFGLSVSLVIDGQQMLVEIPYSELGEFRQGEKYVIGLKIKGTEIVPTVKALEWEDEEVNGGNKYPVE” as the sequence, how does the “soluble on expression in E. coli” value read?
**A.** Its value is “soluble”.

**Q.** For “DAQNYFQATEIRTMIALLQLIDNPYQDIPLAAVLRSPIVGLKENELVLIRLANKETSYYEAFLTFNQKMEPTMEEAVVQEKTIRFAESLEKWREQARRNQISNLLWTIYRETAYLDYVGGLPVGKQRQANLYALVDRAAAYEKTTFRGLFQFVRFIEKMQEKDKDLAEPVVLSEENAVRV”, which “soluble on expression in E. coli” value is on record?
**A.** Its value is “not soluble”.

**Q.** For “QVQLQQSGPELVKPGALVKISCKASGYTFTNYDIHWVKQRPGQGLEWIGWIYPGDGSTKYNEKFKGKATLTADKSSSTAYMHLSSLTSEKSAVYFCAREWAYWGQGTLVTVSAAKTTAPSVYPLAPGCGDTTGSSVTLGCLVKGYFPEPVTLTWNSGSLSSGVHTFPAVLQSDLYTLSSSVTVTSSTWPSQSITCNVAHPASSTKVDKKIEPRGPTIKPC”, which “soluble on expression in E. coli” value is on record?
**A.** Its value is “soluble”.

**Q.** Which “soluble on expression in E. coli” value does the source give for “MGSDKIHHHHHHMAGSLIERTLRVLETLSSEPDGIPLQRLAERLEIPKSAAHRICNELGRQGYVRQETRTGHYRLSTRLIALGFRYLGSTGASDVLQPILDRLADETGELVRLGVIEGDRQTWIAKAQGTRTGLRYDPDMGREAPLRYTASGQAWLASLDDQAALALLERQGHHNPEHFGPNAPRTDYELLDRLALARERGYTCCVDSSALGTSAFGAVIRHPMQGHTIGVISVAGPSVRLTEDRMHELAPKLLQAVEELSQCSQASQLFSE” here?
**A.** The value was “not soluble”.

**Q.** For “GMRNMQEKGVSEKEILEELKKYRSLDLKYEDGNIFGSMCSNVLPITRKIVDIFLETNLGDPGLFKGTKLLEEKAVALLGSLLNNKDAYGHIVSGGTEANLMALRCIKNIWREKRRKGLSKNEHPKIIVPITAHFSFEKGREMMDLEYIYAPIKEDYTIDEKFVKDAVEDYDVDGIIGIAGTTELGTIDNIEELSKIAKENNIYIHVDAAFGGLVIPFLDDKYKKKGVNYKFDFSLGVDSITIDPHKMGHCPIPSGGILFKDIGYKRYLDVDAPYLTETRQATILGTRVGFGGACTYAVLRYLGREGQRKIVNECMENTLYLYKKLKENNFKPVIEPILNIVAIEDEDYKEVCKKLRDRGIYVSVCNCVKALRIVVMPHIKREHIDNFIEILNSIKRD”, which “soluble on expression in E. coli” value is on record?
**A.** The value was “soluble”.

**Q.** Which “soluble on expression in E. coli” value does the source give for “GLVAPGYKMATVAVDHLLGNTESKFEGADMSAKLKLLGVKVGSIGDANGRTEGCKSYVYQNEEQEVYKRLIVSEDNKKLLGAVLVGDTSDYGDLLQLMLNEIDLPEHPDALILPAHAGAEKPALGADALPESAVICSCFDVTKGKIAQAVADGHHTLGDIK” here?
**A.** The value was “not soluble”.

**Q.** With “YRFSDFEMGLLQTHAEMAERMVNEIGGEHLEIRVLAEITELLQERNEELSPFLTRVLSMATELIGADTGSIAIVQERDGEKWLVVEDEEGTIVGAKNKSWLKKYIPPFRIGGHELPAEERSLTGYVAWSKQPKIIAHVADEQGGEGFHRSMHELIKSEIAVPIVCDDEVIAVVCLNSLKPAWFTEEHKRILQIIDRLTSRHISDVQRIERLEGEVTRLKTDVAYKDPQISSYR” as the sequence, how does the “soluble on expression in E. coli” value read?
**A.** The value was “not soluble”.

**Q.** For “MSLESVKCIFERHPDFASKFRPKNRHMKSTYMTVLLGLIKTMCQLPEELTDDDLDEASVAVSYVENGGLRLDWLEKKLAEVKAKKKKVETGKARLQRAEEELQKLNQKCLEMKAFLEKENADVSEANVPLSFEDVVSMIPLPNLHAKNAGYLVNGEVKIVVEINDLEVIGKLDVSEESEETNQPLKKIKLDDNDAVSFDSLNETSPVKESIDVNGFQVLPSEGHHHHHH”, which “soluble on expression in E. coli” value is on record?
**A.** The value was “soluble”.

**Q.** Which “soluble on expression in E. coli” value does the source give for “MDTSLPSAILNNMVTATLILDDGLAIRYANPAAELLFSQSAKRIVEQSLSQLIQHASLDLALLTQPLQSGQSITDSDVTFVVDGRPLMLEVTVSPITWQRQLMLLVEMRKIDQQRRLTQELNQHAQQQAAKLLVRGLAHEIKNPLGGLRGAAQLLEKMLPDPSLTEYTHIIIEQADRLRALVDRLLGPQKPGK” here?
**A.** The value was “not soluble”.
